Measured values taken from paper PMC6781908.

Columns and labels:
[1] = GFP fluorescence in D-type motor axons; conditions: glycan lost; control: wild-type DDR-2::GFP
[2] = anti-GFP IP, anti-phosphotyrosine blot (autophosphorylation) from worms; conditions: glycan lost; control: wild-type DDR-2::GFP

B1: DDR-2: N141A (protein)
parent chain: MKLLLYLFGVTFHSNTVVALELRECSHQLGMSNRKIRDEQISASSSFDLQSTGPQHARAHQESGSGAWCPKNQINSLSKEWLQISFSVDTVITSVETQGRFDDGRGMEYATAFKIQYWRPSLNAWASYKDDFELETIPANNDTEHAIRRHLDRAIIARRIRIVPVSNSTRTVCMRVEVFGCPFDDSLVFYNVDQGDLQSGISYHDFSYDGNLANSPHLTGGIGKLYDGEVGKNNVFVNHHKWVGWRRKRNGNVKLAFEFSELRNISGILIHTSNEFKKSAKAFSSATVLFSINGKDFSDTIVHFNNPEDTESEVPRWIRIPVNNRIAKVAKIRLNFGTDSDWLFISEVNFESNHTNIELLNDDVVIPDSVSYFSVTEHDDGTSMFAFIIFFFMFLIVAVIILTVLYRKREYRVKASSPSPNAKREILLTIDGNTIKHHVSPSTYQMARDNLQNALIEKMPMSPIISDYAEPDISVCSDVTANTPLLYGIDGPYDTQKRSNPLSSMVKYSDYGEVYCTTLPEIARDKLICVSRIGQGEFGEVDLCQLENRKVAVKKLHGISQADEFSFHREIRVLGSLKHPNVVEVVGVCTIQKPILCIMEYMENGDLKSYILKNPTIQTSQCISICTQLAAGLAYLESCNFVHRDIAARNCLVDGEGNVKIADFGMARSLYSQEYYKVEGKFVLPIRWMAWEALLLGKFSTASDVWGFGVTMWEIFSLCSEKPYSDMTDDDVVENLQSMSSTGSLKQVLSRPRMCPSKLYNEQILPCWNYESSRRPSFENVHLHLQSLVHTSPHIHF
With B1 the localisation_or_trafficking [1] was “no change” and the enzymatic_activity [2] was “no change”.
